Results reported in US20100303812A1 (SMART TARGETING, published 2010).

T1: human DLL1 (on transfected CHO cells) (human, UniProt O00548 18-723)
T1 construct: whole, on cells; also called delta-like-1
T1 sequence (looked up): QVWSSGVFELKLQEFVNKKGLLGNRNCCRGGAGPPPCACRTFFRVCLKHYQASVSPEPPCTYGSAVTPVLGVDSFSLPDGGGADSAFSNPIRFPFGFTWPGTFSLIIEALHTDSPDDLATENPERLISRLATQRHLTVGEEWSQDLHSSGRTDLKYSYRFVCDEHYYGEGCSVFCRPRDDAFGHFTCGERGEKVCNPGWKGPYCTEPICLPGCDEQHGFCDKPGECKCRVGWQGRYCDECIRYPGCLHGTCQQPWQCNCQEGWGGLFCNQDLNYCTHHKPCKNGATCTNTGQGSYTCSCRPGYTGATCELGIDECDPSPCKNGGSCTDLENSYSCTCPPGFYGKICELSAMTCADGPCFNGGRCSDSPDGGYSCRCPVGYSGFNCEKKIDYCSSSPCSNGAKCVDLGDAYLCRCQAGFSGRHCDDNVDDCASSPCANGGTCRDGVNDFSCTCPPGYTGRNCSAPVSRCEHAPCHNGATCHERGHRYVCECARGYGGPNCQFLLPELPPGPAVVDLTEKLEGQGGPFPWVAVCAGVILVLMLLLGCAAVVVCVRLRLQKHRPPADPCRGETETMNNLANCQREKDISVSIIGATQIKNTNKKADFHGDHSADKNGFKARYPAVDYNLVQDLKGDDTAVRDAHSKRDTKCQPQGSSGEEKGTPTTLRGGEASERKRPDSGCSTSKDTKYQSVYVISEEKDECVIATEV

B1: cSTL4 (antibody, V domains shown)
VH: EVQLQQSGPELVKPGASVKMSCKASGYTFTSYVMHWVKQKPGQGLEWIGYIIPYNDGTKYNEKFKGKATLTSDKSSSTAYMELSSLTSEDSAVYYCARSEDYDHFDYWGQGTTVTVSS
VL: QIVLSQSPVILSASPGEKVTMTCRASSSVSFMHWYQQKPGSSPKPWIYATSNLTSGVPTRFSGSGSGTSYSLTISRVEAEDAATYYCQQWSSNPFTFGSGTKLEIKR
notes: Chimeric form of STL4: mouse VH and VL fused to human IgG heavy and kappa constant regions, expressed from pCAcc vectors; also called chimeric anti-Dll4 antibody; chimeric antibody; not shown: human IgG heavy constant region CH1-H-CH2-CH3; human immunoglobulin kappa light chain constant region
B2: STL4 (antibody, V domains shown)
VH: B1 VH
VL: B1 VL
notes: Mouse monoclonal antibody (BALB/c hybridoma, purified from ascites); mouse IgG1 served as the control; also called anti-DLL4 antibody; anti-Dll4-antibody (STL4)

Columns and labels:
pure recombinant Dll4 = biological target: T2, pure recombinant Dll4 (human, UniProt Q9NR61 27-524); test: SPR, Biacore A100; immobilized recombinant Dll4, antibody at 20, 10, 5, 2.5 and 1.2 µg/ml
T2 construct: also called recombinant DLL4 ligand; immobilized Dll4
T2 sequence (Q9NR61 27-524 limits assumed): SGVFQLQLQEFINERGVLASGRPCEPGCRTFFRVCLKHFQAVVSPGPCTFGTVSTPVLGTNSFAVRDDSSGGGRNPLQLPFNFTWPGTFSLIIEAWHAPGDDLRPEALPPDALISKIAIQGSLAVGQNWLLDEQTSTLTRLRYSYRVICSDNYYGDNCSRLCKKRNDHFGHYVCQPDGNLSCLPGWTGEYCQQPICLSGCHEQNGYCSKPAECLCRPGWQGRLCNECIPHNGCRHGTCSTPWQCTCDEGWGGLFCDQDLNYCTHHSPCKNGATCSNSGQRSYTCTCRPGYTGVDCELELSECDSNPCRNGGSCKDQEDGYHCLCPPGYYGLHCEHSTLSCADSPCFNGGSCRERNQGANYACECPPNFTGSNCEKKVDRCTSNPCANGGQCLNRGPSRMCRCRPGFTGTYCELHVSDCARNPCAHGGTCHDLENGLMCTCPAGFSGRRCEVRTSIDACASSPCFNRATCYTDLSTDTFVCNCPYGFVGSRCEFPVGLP

[1] = biological target: T3, mouse DLL4 (on transfected CHO cells) (mouse, UniProt Q9JI71 27-686); test: flow cytometry on transfected CHO cells (STL4 as one of 'all three')
T3 construct: also called murine DLL4; murine Dll4
T3 sequence (Q9JI71 other isoform, or with tags, fused parts or gaps limits assumed): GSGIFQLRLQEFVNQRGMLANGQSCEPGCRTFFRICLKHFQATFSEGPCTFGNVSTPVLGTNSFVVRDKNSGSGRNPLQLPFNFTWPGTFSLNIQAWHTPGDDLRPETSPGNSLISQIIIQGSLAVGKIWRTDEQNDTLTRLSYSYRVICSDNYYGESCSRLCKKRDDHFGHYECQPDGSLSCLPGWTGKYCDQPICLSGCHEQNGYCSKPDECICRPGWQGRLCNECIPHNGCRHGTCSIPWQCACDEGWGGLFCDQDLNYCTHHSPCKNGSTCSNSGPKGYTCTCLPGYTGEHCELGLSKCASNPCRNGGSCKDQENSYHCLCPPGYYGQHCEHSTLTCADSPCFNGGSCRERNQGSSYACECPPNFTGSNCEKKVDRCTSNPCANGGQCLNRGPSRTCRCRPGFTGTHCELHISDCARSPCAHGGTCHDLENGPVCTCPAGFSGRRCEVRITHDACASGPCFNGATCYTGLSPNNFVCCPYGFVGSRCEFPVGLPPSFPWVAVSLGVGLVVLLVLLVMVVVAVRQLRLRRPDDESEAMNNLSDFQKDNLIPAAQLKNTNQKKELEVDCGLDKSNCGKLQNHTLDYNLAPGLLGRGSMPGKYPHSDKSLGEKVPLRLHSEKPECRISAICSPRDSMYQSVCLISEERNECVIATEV

[2] = biological target: T4, human Jagged2 (on transfected CHO cells) (human, UniProt Q9Y219 24-1238); test: flow cytometry on transfected CHO cells (STL4 as one of the three)
T4 construct: whole, on cells
T4 sequence (Q9Y219 24-1238): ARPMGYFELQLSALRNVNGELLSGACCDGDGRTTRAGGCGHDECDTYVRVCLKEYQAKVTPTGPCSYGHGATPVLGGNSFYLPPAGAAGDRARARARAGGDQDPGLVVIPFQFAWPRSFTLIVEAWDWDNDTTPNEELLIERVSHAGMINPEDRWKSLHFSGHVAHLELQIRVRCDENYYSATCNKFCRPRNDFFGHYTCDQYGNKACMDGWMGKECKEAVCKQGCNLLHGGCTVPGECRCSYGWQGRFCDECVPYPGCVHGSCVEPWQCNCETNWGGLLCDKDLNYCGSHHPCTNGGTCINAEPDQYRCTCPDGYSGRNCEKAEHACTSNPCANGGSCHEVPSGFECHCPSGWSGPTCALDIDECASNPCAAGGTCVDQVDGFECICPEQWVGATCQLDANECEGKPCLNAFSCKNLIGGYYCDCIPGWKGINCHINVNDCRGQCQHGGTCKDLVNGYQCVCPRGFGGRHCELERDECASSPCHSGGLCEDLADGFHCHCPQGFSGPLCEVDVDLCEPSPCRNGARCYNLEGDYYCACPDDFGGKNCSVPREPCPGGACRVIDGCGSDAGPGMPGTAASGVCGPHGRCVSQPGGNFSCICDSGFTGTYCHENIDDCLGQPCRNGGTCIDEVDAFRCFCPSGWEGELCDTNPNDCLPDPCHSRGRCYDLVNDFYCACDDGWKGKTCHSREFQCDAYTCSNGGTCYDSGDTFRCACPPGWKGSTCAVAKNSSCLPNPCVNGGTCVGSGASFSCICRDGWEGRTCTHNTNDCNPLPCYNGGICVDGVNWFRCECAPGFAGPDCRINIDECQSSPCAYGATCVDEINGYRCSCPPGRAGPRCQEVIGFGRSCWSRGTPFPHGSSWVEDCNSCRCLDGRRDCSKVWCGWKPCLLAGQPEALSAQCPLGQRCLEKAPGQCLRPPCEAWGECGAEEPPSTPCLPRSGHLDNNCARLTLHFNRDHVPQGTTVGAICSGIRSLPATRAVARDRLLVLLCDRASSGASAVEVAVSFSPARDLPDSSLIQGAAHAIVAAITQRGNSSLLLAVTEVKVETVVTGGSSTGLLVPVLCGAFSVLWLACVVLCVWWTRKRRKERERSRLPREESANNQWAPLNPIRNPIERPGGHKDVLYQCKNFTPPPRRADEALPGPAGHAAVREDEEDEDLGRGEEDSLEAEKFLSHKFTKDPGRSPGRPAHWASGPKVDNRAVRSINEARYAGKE

[3] = biological target: T5, human Jagged1 (on transfected CHO cells) (human, UniProt P78504 34-1218); test: as above
T5 construct: whole, on cells
T5 sequence (P78504 34-1218): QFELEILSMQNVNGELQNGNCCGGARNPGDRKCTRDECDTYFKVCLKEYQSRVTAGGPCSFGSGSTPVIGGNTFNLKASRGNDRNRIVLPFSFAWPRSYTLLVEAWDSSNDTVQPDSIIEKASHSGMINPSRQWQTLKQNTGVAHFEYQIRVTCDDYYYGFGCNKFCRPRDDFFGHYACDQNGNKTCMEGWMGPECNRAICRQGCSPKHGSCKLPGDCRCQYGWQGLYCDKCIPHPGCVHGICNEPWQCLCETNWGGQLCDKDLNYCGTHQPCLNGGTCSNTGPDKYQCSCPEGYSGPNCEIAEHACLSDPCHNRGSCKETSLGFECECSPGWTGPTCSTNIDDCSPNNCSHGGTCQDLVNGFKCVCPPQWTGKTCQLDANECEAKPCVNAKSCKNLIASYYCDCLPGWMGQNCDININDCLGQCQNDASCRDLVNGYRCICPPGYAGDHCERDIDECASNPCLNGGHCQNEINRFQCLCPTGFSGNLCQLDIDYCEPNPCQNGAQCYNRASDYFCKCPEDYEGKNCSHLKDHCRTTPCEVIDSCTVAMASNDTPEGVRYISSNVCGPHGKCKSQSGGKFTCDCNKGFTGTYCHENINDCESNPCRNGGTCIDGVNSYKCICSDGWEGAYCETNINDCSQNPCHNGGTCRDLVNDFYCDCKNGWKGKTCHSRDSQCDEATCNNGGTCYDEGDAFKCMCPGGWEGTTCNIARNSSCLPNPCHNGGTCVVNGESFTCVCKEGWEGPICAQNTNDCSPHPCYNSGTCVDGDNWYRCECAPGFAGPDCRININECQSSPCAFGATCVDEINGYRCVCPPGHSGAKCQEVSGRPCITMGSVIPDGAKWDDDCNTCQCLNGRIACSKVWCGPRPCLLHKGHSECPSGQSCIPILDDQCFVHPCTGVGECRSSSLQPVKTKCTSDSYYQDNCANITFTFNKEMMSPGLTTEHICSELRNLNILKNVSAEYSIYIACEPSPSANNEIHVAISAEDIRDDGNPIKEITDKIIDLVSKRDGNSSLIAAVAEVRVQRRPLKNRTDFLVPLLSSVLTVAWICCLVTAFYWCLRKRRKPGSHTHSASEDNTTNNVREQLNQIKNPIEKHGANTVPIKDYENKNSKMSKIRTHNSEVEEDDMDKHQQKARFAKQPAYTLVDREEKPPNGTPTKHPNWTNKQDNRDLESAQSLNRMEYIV

[4] = biological target: T1, human DLL1 (on transfected CHO cells); test: as above

Binder | Ka (pure recombinant Dll4) [M⁻¹] | Kd (pure recombinant Dll4) [nM] | koff (pure recombinant Dll4) [s⁻¹] | binding result [1] | binding result [2] | binding result [3] | binding result [4]
B1 | 2.45e+09 | 0.408 | 8.79e-05 | – | – | – | –
B2 | – | – | – | no binding | no binding | no binding | no binding
